US20220227830A1, “QD DOSING OF GIP RECEPTOR AGONIST PEPTIDE COMPOUNDS AND USES THEREOF” (Takeda Pharmaceutical Company Limited, priority 2020, published 2022)
Starred links: 1 amine or outer side, 2 acyl side, 3 side chain; linkers in the order of their positions; H or OH if unused. Non-standard residues stand in square brackets, D forms with d. Groups on a side chain read outwards from the residue. No end group written: not given here. *: point of attachment. C15 diacid = O=C(O)CCCCCCCCCCCCCC(=O)*; γGlu = O=C(O)[C@H](CCC(=O)[*:2])N[*:1]; NMeY = CN[C@@H](Cc1ccc(O)cc1)C(=O)O; AEEA = NCCOCCOCC(=O)O; Aib = CC(C)(N)C(=O)O

T1: full-length human GIPR with an N-terminal FLAG tag (human, UniProt P48546 22-466)
T1 sequence (looked up): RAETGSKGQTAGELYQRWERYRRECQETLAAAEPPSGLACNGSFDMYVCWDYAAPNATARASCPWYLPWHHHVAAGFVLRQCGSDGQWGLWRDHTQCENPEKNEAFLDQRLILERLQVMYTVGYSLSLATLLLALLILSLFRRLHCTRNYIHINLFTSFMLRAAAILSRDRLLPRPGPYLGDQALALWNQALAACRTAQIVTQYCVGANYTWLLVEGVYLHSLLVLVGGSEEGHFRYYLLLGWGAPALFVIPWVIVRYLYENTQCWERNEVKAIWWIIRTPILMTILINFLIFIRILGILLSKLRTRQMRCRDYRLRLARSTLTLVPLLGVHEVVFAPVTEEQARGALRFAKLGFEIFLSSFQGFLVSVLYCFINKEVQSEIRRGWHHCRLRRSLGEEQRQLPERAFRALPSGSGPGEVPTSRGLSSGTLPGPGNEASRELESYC


How the values were obtained:
[1] = target: T1, full-length human GIPR with an …; experiment: cell-based or functional assay
[2] = target: full-length human GLP-1R with an N-terminal FLAG tag (human, UniProt P43220 24-463); experiment: cell-based or functional assay

Row | Binder | Human GIPR cAMP, HEK293T EC50 [1] [nM] | Human GLP1R cAMP HEK293T EC50 [2] [nM]
1 | [NMeY][Aib]EGTFISDYSI[Aib]K([AEEA-AEEA-γGlu-C15 diacid])DR[Aib]AQ[Aib]DFVNWLLAQRPSSGAPPPS-NH2 (N-terminus assumed; SMILES CC[C@H](C)[C@H](NC(=O)[C@H](Cc1ccccc1)NC(=O)[C@@H](NC(=O)CNC(=O)[C@H](CCC(=O)O)NC(=O)C(C)(C)NC(=O)[C@H](Cc1ccc(O)cc1)NC)[C@@H](C)O)C(=O)N[C@@H](CO)C(=O)N[C@@H](CC(=O)O)C(=O)N[C@@H](Cc1ccc(O)cc1)C(=O)N[C@@H](CO)C(=O)N[C@H](C(=O)NC(C)(C)C(=O)N[C@@H](CCCCNC(=O)COCCOCCNC(=O)COCCOCCNC(=O)CC[C@H](NC(=O)CCCCCCCCCCCCCC(=O)O)C(=O)O)C(=O)N[C@@H](CC(=O)O)C(=O)N[C@@H](CCCNC(=N)N)C(=O)NC(C)(C)C(=O)N[C@@H](C)C(=O)N[C@@H](CCC(N)=O)C(=O)NC(C)(C)C(=O)N[C@@H](CC(=O)O)C(=O)N[C@@H](Cc1ccccc1)C(=O)N[C@H](C(=O)N[C@@H](CC(N)=O)C(=O)N[C@@H](Cc1c[nH]c2ccccc12)C(=O)N[C@@H](CC(C)C)C(=O)N[C@@H](CC(C)C)C(=O)N[C@@H](C)C(=O)N[C@@H](CCC(N)=O)C(=O)N[C@@H](CCCNC(=N)N)C(=O)N1CCC[C@H]1C(=O)N[C@@H](CO)C(=O)N[C@@H](CO)C(=O)NCC(=O)N[C@@H](C)C(=O)N1CCC[C@H]1C(=O)N1CCC[C@H]1C(=O)N1CCC[C@H]1C(=O)N[C@@H](CO)C(N)=O)C(C)C)[C@@H](C)CC) [Compound 128] | 0.0004 | 457
2 | [NMeY][Aib]EGTFISDYSIAK([Gly-Gly-Gly-Gly-Gly-γGlu-C15 diacid])DR[Aib]AQ[Aib]DFVNWLLAQRPSSGAPPPS-NH2 (N-terminus assumed; SMILES CC[C@H](C)[C@H](NC(=O)[C@H](CO)NC(=O)[C@H](Cc1ccc(O)cc1)NC(=O)[C@H](CC(=O)O)NC(=O)[C@H](CO)NC(=O)[C@@H](NC(=O)[C@H](Cc1ccccc1)NC(=O)[C@@H](NC(=O)CNC(=O)[C@H](CCC(=O)O)NC(=O)C(C)(C)NC(=O)[C@H](Cc1ccc(O)cc1)NC)[C@@H](C)O)[C@@H](C)CC)C(=O)N[C@@H](C)C(=O)N[C@@H](CCCCNC(=O)CNC(=O)CNC(=O)CNC(=O)CNC(=O)CNC(=O)CC[C@H](NC(=O)CCCCCCCCCCCCCC(=O)O)C(=O)O)C(=O)N[C@@H](CC(=O)O)C(=O)N[C@@H](CCCNC(=N)N)C(=O)NC(C)(C)C(=O)N[C@@H](C)C(=O)N[C@@H](CCC(N)=O)C(=O)NC(C)(C)C(=O)N[C@@H](CC(=O)O)C(=O)N[C@@H](Cc1ccccc1)C(=O)N[C@H](C(=O)N[C@@H](CC(N)=O)C(=O)N[C@@H](Cc1c[nH]c2ccccc12)C(=O)N[C@@H](CC(C)C)C(=O)N[C@@H](CC(C)C)C(=O)N[C@@H](C)C(=O)N[C@@H](CCC(N)=O)C(=O)N[C@@H](CCCNC(=N)N)C(=O)N1CCC[C@H]1C(=O)N[C@@H](CO)C(=O)N[C@@H](CO)C(=O)NCC(=O)N[C@@H](C)C(=O)N1CCC[C@H]1C(=O)N1CCC[C@H]1C(=O)N1CCC[C@H]1C(=O)N[C@@H](CO)C(N)=O)C(C)C) [Compound 126] | 0.0002 | 589
3 | [NMeY][Aib]EGTFISDYSIALDRK([AEEA-AEEA-γGlu-C15 diacid])AQ[Aib]NFVNWLLAQSPSSGAPPPS-NH2 (N-terminus assumed; SMILES CC[C@H](C)[C@H](NC(=O)[C@H](CO)NC(=O)[C@H](Cc1ccc(O)cc1)NC(=O)[C@H](CC(=O)O)NC(=O)[C@H](CO)NC(=O)[C@@H](NC(=O)[C@H](Cc1ccccc1)NC(=O)[C@@H](NC(=O)CNC(=O)[C@H](CCC(=O)O)NC(=O)C(C)(C)NC(=O)[C@H](Cc1ccc(O)cc1)NC)[C@@H](C)O)[C@@H](C)CC)C(=O)N[C@@H](C)C(=O)N[C@@H](CC(C)C)C(=O)N[C@@H](CC(=O)O)C(=O)N[C@@H](CCCNC(=N)N)C(=O)N[C@@H](CCCCNC(=O)COCCOCCNC(=O)COCCOCCNC(=O)CC[C@H](NC(=O)CCCCCCCCCCCCCC(=O)O)C(=O)O)C(=O)N[C@@H](C)C(=O)N[C@@H](CCC(N)=O)C(=O)NC(C)(C)C(=O)N[C@@H](CC(N)=O)C(=O)N[C@@H](Cc1ccccc1)C(=O)N[C@H](C(=O)N[C@@H](CC(N)=O)C(=O)N[C@@H](Cc1c[nH]c2ccccc12)C(=O)N[C@@H](CC(C)C)C(=O)N[C@@H](CC(C)C)C(=O)N[C@@H](C)C(=O)N[C@@H](CCC(N)=O)C(=O)N[C@@H](CO)C(=O)N1CCC[C@H]1C(=O)N[C@@H](CO)C(=O)N[C@@H](CO)C(=O)NCC(=O)N[C@@H](C)C(=O)N1CCC[C@H]1C(=O)N1CCC[C@H]1C(=O)N1CCC[C@H]1C(=O)N[C@@H](CO)C(N)=O)C(C)C) [Compound 127] | 0.0005 | 66.1
4 | [NMeY][Aib]EGTFISDYSIAK([Gly-Gly-Gly-Gly-Gly-γGlu-C15 diacid])DR[Aib]AQ[Aib]NFVNWLLAQSPSSGAPPPS-NH2 (N-terminus assumed; SMILES CC[C@H](C)[C@H](NC(=O)[C@H](CO)NC(=O)[C@H](Cc1ccc(O)cc1)NC(=O)[C@H](CC(=O)O)NC(=O)[C@H](CO)NC(=O)[C@@H](NC(=O)[C@H](Cc1ccccc1)NC(=O)[C@@H](NC(=O)CNC(=O)[C@H](CCC(=O)O)NC(=O)C(C)(C)NC(=O)[C@H](Cc1ccc(O)cc1)NC)[C@@H](C)O)[C@@H](C)CC)C(=O)N[C@@H](C)C(=O)N[C@@H](CCCCNC(=O)CNC(=O)CNC(=O)CNC(=O)CNC(=O)CNC(=O)CC[C@H](NC(=O)CCCCCCCCCCCCCC(=O)O)C(=O)O)C(=O)N[C@@H](CC(=O)O)C(=O)N[C@@H](CCCNC(=N)N)C(=O)NC(C)(C)C(=O)N[C@@H](C)C(=O)N[C@@H](CCC(N)=O)C(=O)NC(C)(C)C(=O)N[C@@H](CC(N)=O)C(=O)N[C@@H](Cc1ccccc1)C(=O)N[C@H](C(=O)N[C@@H](CC(N)=O)C(=O)N[C@@H](Cc1c[nH]c2ccccc12)C(=O)N[C@@H](CC(C)C)C(=O)N[C@@H](CC(C)C)C(=O)N[C@@H](C)C(=O)N[C@@H](CCC(N)=O)C(=O)N[C@@H](CO)C(=O)N1CCC[C@H]1C(=O)N[C@@H](CO)C(=O)N[C@@H](CO)C(=O)NCC(=O)N[C@@H](C)C(=O)N1CCC[C@H]1C(=O)N1CCC[C@H]1C(=O)N1CCC[C@H]1C(=O)N[C@@H](CO)C(N)=O)C(C)C) [Compound 125] | 0.0002 | 166
